In publication PMC7053995, “New approach for membrane protein reconstitution into peptidiscs and basis for their adaptability to different proteins” (eLife, 2020):

Columns and labels:
[1] = target: Rhodobacter sphaeroides dimeric RC–LH1–PufX complex (521 kDa) (Rhodobacter sphaeroides) (UniProt P0C0Y7); experiment: negative-stain electron microscopy; SEC peak fractions of purified RC complexes in peptidiscs, 0.7% uranyl formate, 100 class averages by K-means classification
[2] = target: the molecule itself; experiment: cryo-EM structure; single-particle cryo-EM of His-tagged membrane protein reconstituted on Ni beads into peptidiscs and purified by SEC; vitrified; Titan Krios 300 kV, K2 Summit; RELION-3 with C2 (MsbA) or C7 (MscS) symmetry imposed, also processed without symmetry

Row | stoichiometry N [1] | Molecule | stoichiometry N [2]
1 | 2 | Rhodobacter sphaeroides dimeric RC–LH1–PufX complex (521 kDa) (from UniProt P0C0Y7 1-260; P13402 1-82) | –
2 | – | Escherichia coli mechanosensitive channel MscS, His-tagged (natural protein, UniProt P0C0S1 1-286, looked up, full-length E. coli MscS cloned into pET-28b(+); Homo-heptamer; source: E. coli BL21 (DE3), purified (Ni-NTA, SEC)) MEDLNVVDSINGAGSWLVANQALLLSYAVNIVAALAIIIVGLIIARMISNAVNRLMISRKIDATVADFLSALVRYGIIAFTLIAALGRVGVQTASVIAVLGAAGLAVGLALQGSLSNLAAGVLLVMFRPFRAGEYVDLGGVAGTVLSVQIFSTTMRTADGKIIVIPNGKIIAGNIINFSREPVRRNEFIIGVAYDSDIDQVKQILTNIIQSEDRILKDREMTVRLNELGASSINFVVRVWSNSGDLQNVYWDVLERIKREFDAAGISFPYPQMDVNFKRVKEDKAA | 7
3 | – | Escherichia coli MsbA (ABC transporter, lipid transporter), His-tagged (natural protein, MsbA, ABC transporter of Escherichia coli; Nucleotide-free; also called His6-MsbA; source: E. coli C43, purified (DDM, Ni-NTA, SEC)) MHNDKDLSTWQTFRRLWPTIAPFKAGLIVAGVALILNAASDTFMLSLLKPLLDDGFGKTDRSVLVWMPLVVIGLMILRGITSYVSSYCISWVSGKVVMTMRRRLFGHMMGMPVSFFDKQSTGTLLSRITYDSEQVASSSSGALITVVREGASIIGLFIMMFYYSWQLSIILIVLAPIVSIAIRVVSKRFRNISKNMQNTMGQVTTSAEQMLKGHKEVLIFGGQEVETKRFDKVSNRMRLQGMKMVSASSISDPIIQLIASLALAFVLYAASFPSVMDSLTAGTITVVFSSMIALMRPLKSLTNVNAQFQRGMAACQTLFTILDSEQEKDEGKRVIERATGDVEFRNVTFTYPGRDVPALRNINLKIPAGKTVALVGRSGSGKSTIASLITRFYDIDEGEILMDGHDLREYTLASLRNQVALVSQNVHLFNDTVANNIAYARTEQYSREQIEEAARMAYAMDFINKMDNGLDTVIGENGVLLSGGQRQRIAIARALLRDSPILILDEATSALDTESERAIQAALDELQKNRTSLVIAHRLSTIEKADEIVVVEDGVIVERGTHNDLLEHRGVYAQLHKMQFGQ | 2
